Assay results published in patent publication US20260285931 (published 2026).
Numbering of substitutions follows the chain as printed.

T1: CD127-Fc (IL-7Ralpha Fc) (human, UniProt P16871)
T1 chain: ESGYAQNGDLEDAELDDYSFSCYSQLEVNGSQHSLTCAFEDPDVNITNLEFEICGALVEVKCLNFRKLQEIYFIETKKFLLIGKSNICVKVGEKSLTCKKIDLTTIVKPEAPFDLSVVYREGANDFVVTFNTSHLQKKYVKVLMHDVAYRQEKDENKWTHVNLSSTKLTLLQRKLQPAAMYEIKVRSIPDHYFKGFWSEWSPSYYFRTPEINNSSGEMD

B1: IL-7_s2 (designed binder)
chain: KKLNDLCFLKRLLQEIKTCWNKICSAKQEPERNECFKQYESVLMVSIDQLLDSMKEIGSNCLNNEFNFFKRHICDANKECMFLFRAARKLRQFLKMQSTGDFDLHLLKVSEGTTILLQSTGCS
B2: IL-7_s8 (designed binder)
chain: B1 chain with I23E, A26E, Q28P, E29L, P30L, R32K, N33S, E34H, F36I
B3: IL-7_s10 (designed binder)
chain: KKLNDLCFLKRLLQEIKTCWNKYTKKVPQVSTPTLVQYESVLMVSIDQLLDSMKEIGSNCLNNEFNFFKRHICDANKECMFLFRAARKLRQFLKMQSTGDFDLHLLKVSEGTTILLQSTGCS
B4: IL-7_s10a (designed binder)
chain: B3 chain with V36K
B5: IL-7_s5 (designed binder)
chain: KKLNDLCFLKRLLQEIKTCWNKILQKFGERAAKQYESVLMVSIDQLLDSMKEIGSNCLNNEFNFFKRHICDANKECMFLFRAARKLRQFLKMQSTGDFDLHLLKVSEGTTILLQSTGCS
B6: IL-7_s12 (designed binder)
chain: KKLNDLCFLKRLLQEIKTCWNKLHEKTPVSDRVTKQYESVLMVSIDQLLDSMKEIGSNCLNNEFNFFKRHICDANKECMFLFRAARKLRQFLKMQSTGDFDLHLLKVSEGTTILLQSTGCS
B7: IL-7_s4 (designed binder)
chain: KKLNDLCFLKRLLQEIKTCWNKIAFTECSQAADKAACLLPKLDEYESVLMVSIDQLLDSMKEIGSNCLNNEFNFFKRHICDANKECMFLFRAARKLRQFLKMQSTGDFDLHLLKVSEGTTILLQSTGCS
B8: IL-7_s11 (designed binder)
chain: KKLNDLCFLKRLLQEIKTCWNKKVGSKCSKHPEAKRMPCAEDYLKQYESVLMVSIDQLLDSMKEIGSNCLNNEFNFFKRHICDANKECMFLFRAARKLRQFLKMQSTGDFDLHLLKVSEGTTILLQSTGCS
B9: IL-7_s7 (designed binder)
chain: KKLNDLCFLKRLLQEIKTCWNKIVHTECSHGDLLECADDRKQYESVLMVSIDQLLDSMKEIGSNCLNNEFNFFKRHICDANKECMFLFRAARKLRQFLKMQSTGDFDLHLLKVSEGTTILLQSTGCS
B10: IL-7_s13a (designed binder)
chain: KKLNDLCFLKRLLQEIKTCWNKICSKADDKETCKQYESVLMVSIDQLLDSMKEIGSNCLNNEFNFFKRHICDANKECMFLFRAARKLRQFLKMQSTGDFDLHLLKVSEGTTILLQSTGCS
B11: IL-7_s4a (designed binder)
chain: KKLNDLCFLKRLLQEIKTCWNKRYKAAFTECSQAADKAACLLPKLDELKQYESVLMVSIDQLLDSMKEIGSNCLNNEFNFFKRHICDANKECMFLFRAARKLRQFLKMQSTGDFDLHLLKVSEGTTILLQSTGCS
B12: IL-7_s6 (designed binder)
chain: KKLNDLCFLKRLLQEIKTCWNKILSQRFPKAEFAEVKQYESVLMVSIDQLLDSMKEIGSNCLNNEFNFFKRHICDANKECMFLFRAARKLRQFLKMQSTGDFDLHLLKVSEGTTILLQSTGCS
B13: IL-7_s13 (designed binder)
chain: KKLNDLCFLKRLLQEIKTCWNKILVEKCSKADDKETCFAEDGKQYESVLMVSIDQLLDSMKEIGSNCLNNEFNFFKRHICDANKECMFLFRAARKLRQFLKMQSTGDFDLHLLKVSEGTTILLQSTGCS
B14: IL-7_s9 (designed binder)
chain: KKLNDLCFLKRLLQEIKTCWNKICSAAADPHECYKQYESVLMVSIDQLLDSMKEIGSNCLNNEFNFFKRHICDANKECMFLFRAARKLRQFLKMQSTGDFDLHLLKVSEGTTILLQSTGCS
B15: IL-7_s1 (designed binder)
chain: KKLNDLCFLKRLLQEIKTCWNKIFAQYLQQSPFEDHKQYESVLMVSIDQLLDSMKEIGSNCLNNEFNFFKRHICDANKECMFLFRAARKLRQFLKMQSTGDFDLHLLKVSEGTTILLQSTGCS
B16: IL-7 wt-degly (protein)
chain: DCDIEGKDGKQYESVLMVSIDQLLDSMKEIGSNCLNNEFNFFKRHICDANKEGMFLFRAARKLRQFLKMQSTGDFDLHLLKVSEGTTILLQCTGQVKGRKPAALGEAQPTKSLEEQKSLKEQKKLNDLCFLKRLLQEIKTCWNKILMGTKEH

Molecular target: T1, CD127-Fc (IL-7Ralpha Fc)
Experiment: BLI

| Binder | Kd [nM] |
| --- | --- |
| B1 | 10.6 |
| B2 | 33.4 |
| B3 | 35.3 |
| B4 | 34.6 |
| B5 | 7.57 |
| B6 | 25.9 |
| B7 | 33.6 |
| B8 | 39.3 |
| B9 | 56.7 |
| B10 | 3.6 |
| B11 | 14.5 |
| B12 | 17.1 |
| B13 | 31.9 |
| B14 | 49.3 |
| B15 | 1.89 |
| B16 | 64.7 |
